The values below come from publication PMC8880714, “Antimicrobial effect and mechanism of bovine lactoferrin against the potato common scab pathogen Streptomyces scabiei” (PLoS ONE, 2022).

Assay [1] has as its system Streptomyces scabiei S58. Briefly: microbe, parasite or virus in culture. To be noted: TSB, 28 °C, 72 h, absorbance 600 nm; for IC50: S. scabiei S58 spores 2 × 10^5/mL, probit analysis, mean ± SD, n = 3, read-out: Antimicrobial activity (IC50). The format is cell-based. As to the method:
S. scabiei S58, isolated from potatoes grown in Kagoshima, Japan, was used in this study. […] For antimicrobial assays, the spores of the isolate were incubated at 28 °C in tryptic soy broth (TSB) (Becton Dickinson, Sparks, USA). Escherichia coli strains JM109 and BL21(λDE3) were grown at 37 °C in Luria-Bertani broth supplemented with 100 μg/mL ampicillin for propagation.
(§1) A 12-well plate was used to assess the antimicrobial activity of LF, hydrolysate, LFcinB, and synthetic peptides. One milliliter of TSB containing each test substance was added to each well and then the spores of S. scabiei S58, prepared as described above, were added into each well at a final concentration of 2 × 10^5 spores/mL. The mixture was incubated at 28 °C for 72 h, and the absorbance was measured at 600 nm to monitor bacterial growth. To further confirm whether the antimicrobial activity is due to growth inhibition or bactericidal effect, 1 mL of TSB containing 2 ×10^3 spores and bLF (1 mg/mL) was incubated at 28 °C and directly cultured on STA after 5, 10, 15, 24, 48, and 72 h of incubation to count the emerging colonies. All assays were performed in duplicate and were repeated three times.

Assay [2] concerns Streptomyces scabiei S58. As to the kind of experiment: Bactericidal effect assay: colony counting on starch agar after treatment. The format is cell-based. The note with it: bLF 1 mg/mL, 2 × 10^3 spores in 1 mL TSB, 28 °C. On the procedure: as §1
Fig 3 Bactericidal effect of bovine-derived lactoferrin (bLF) (A) and minimal inhibitory concentration (MIC) of bLF (B) on Streptomyces scabiei S58. For the assay of bactericidal effect, the mixture of bLF and spores (2 × 10^3/mL) was incubated at 28 °C and directly cultured on starch agar in a time-dependent manner. The number of colonies emerging on the plates was counted. For the MIC assay, the mixture of bLF and spores (2 × 10^5/mL) was incubated at 28 °C for 72 h in tryptic soy broth and the absorbance was measured at 600 nm to monitor bacterial growth. […]

B1: Human lactoferrin (hLF): Human-derived lactoferrin purchased from FUJIFILM Wako (protein, UniProt P02788 20-710, looked up)
Lactotransferrin: GRRRSVQWCAVSQPEATKCFQWQRNMRKVRGPPVSCIKRDSPIQCIQAIAENRADAVTLDGGFIYEAGLAPYKLRPVAAEVYGTERQPRTHYYAVAVVKKGGSFQLNELQGLKSCHTGLRRTAGWNVPIGTLRPFLNWTGPPEPIEAAVARFFSASCVPGADKGQFPNLCRLCAGTGENKCAFSSQEPYFSYSGAFKCLRDGAGDVAFIRESTVFEDLSDEAERDEYELLCPDNTRKPVDKFKDCHLARVPSHAVVARSVNGKEDAIWNLLRQAQEKFGKDKSPKFQLFGSPSGQKDLLFKDSAIGFSRVPPRIDSGLYLGSGYFTAIQNLRKSEEEVAARRARVVWCAVGEQELRKCNQWSGLSEGSVTCSSASTTEDCIALVLKGEADAMSLDGGYVYTAGKCGLVPVLAENYKSQQSSDPDPNCVDRPVEGYLAVAVVRRSDTSLTWNSVKGKKSCHTAVDRTAGWNIPMGLLFNQTGSCKFDEYFSQSCAPGSDPRSNLCALCIGDEQGENKCVPNSNERYYGYTGAFRCLAENAGDVAFVKDVTVLQNTDGNNNEAWAKDLKLADFALLCLDGKRKPVTEARSCHLAMAPNHAVVSRMDKVERLKQVLLHQQAKFGRNGSDCPDKFCLFQSETKNLLFNDNTECLARLHGKTTYEKYLGPQYVAGITNLKKCSTSPLLEACEFLRK
Consider B1, for which the IC50 in assay [1] was 138000 ± 7960 nM.

B2: Bovine lactoferrin (bLF): Bovine-derived lactoferrin purchased from FUJIFILM Wako (protein, UniProt P24627 20-708, looked up)
Lactotransferrin: APRKNVRWCTISQPEWFKCRRWQWRMKKLGAPSITCVRRAFALECIRAIAEKKADAVTLDGGMVFEAGRDPYKLRPVAAEIYGTKESPQTHYYAVAVVKKGSNFQLDQLQGRKSCHTGLGRSAGWIIPMGILRPYLSWTESLEPLQGAVAKFFSASCVPCIDRQAYPNLCQLCKGEGENQCACSSREPYFGYSGAFKCLQDGAGDVAFVKETTVFENLPEKADRDQYELLCLNNSRAPVDAFKECHLAQVPSHAVVARSVDGKEDLIWKLLSKAQEKFGKNKSRSFQLFGSPPGQRDLLFKDSALGFLRIPSKVDSALYLGSRYLTTLKNLRETAEEVKARYTRVVWCAVGPEEQKKCQQWSQQSGQNVTCATASTTDDCIVLVLKGEADALNLDGGYIYTAGKCGLVPVLAENRKSSKHSSLDCVLRPTEGYLAVAVVKKANEGLTWNSLKDKKSCHTAVDRTAGWNIPMGLIVNQTGSCAFDEFFSQSCAPGADPKSRLCALCAGDDQGLDKCVPNSKEKYYGYTGAFRCLAEDVGDVAFVKNDTVWENTNGESTADWAKNLNREDFRLLCLDGTRKPVTEAQSCHLAVAPNHAVVSRSDRAAHVKQVLLHQQALFGKNGKNCPDKFCLFKSETKNLLFNDNTECLAKLGGRPTYEEYLGTEYVTAIANLKKCSTSPLLEACAFLTR
With B2, the “Number of colonies after treatment, at 5 h” value in assay [2] (plated on starch agar after 5 h) is “sharp decrease in the number of colonies”. In addition, the “Number of colonies after treatment, at 48 h” value in assay [2] (plated on starch agar after 48 h) was “only a few colonies remained”. Also, in assay [1], the IC50 is 458 ± 74 nM. Also, the “Minimal inhibitory concentration (no growth observed at this concentration and above)” value in assay [1] (spores 2 × 10^5/mL) came out at 3.9 µM.

B3: Apo-bLF: Iron-depleted (apo) bLF, iron saturation 0.35% (protein, UniProt P24627 20-708, looked up)
Lactotransferrin: APRKNVRWCTISQPEWFKCRRWQWRMKKLGAPSITCVRRAFALECIRAIAEKKADAVTLDGGMVFEAGRDPYKLRPVAAEIYGTKESPQTHYYAVAVVKKGSNFQLDQLQGRKSCHTGLGRSAGWIIPMGILRPYLSWTESLEPLQGAVAKFFSASCVPCIDRQAYPNLCQLCKGEGENQCACSSREPYFGYSGAFKCLQDGAGDVAFVKETTVFENLPEKADRDQYELLCLNNSRAPVDAFKECHLAQVPSHAVVARSVDGKEDLIWKLLSKAQEKFGKNKSRSFQLFGSPPGQRDLLFKDSALGFLRIPSKVDSALYLGSRYLTTLKNLRETAEEVKARYTRVVWCAVGPEEQKKCQQWSQQSGQNVTCATASTTDDCIVLVLKGEADALNLDGGYIYTAGKCGLVPVLAENRKSSKHSSLDCVLRPTEGYLAVAVVKKANEGLTWNSLKDKKSCHTAVDRTAGWNIPMGLIVNQTGSCAFDEFFSQSCAPGADPKSRLCALCAGDDQGLDKCVPNSKEKYYGYTGAFRCLAEDVGDVAFVKNDTVWENTNGESTADWAKNLNREDFRLLCLDGTRKPVTEAQSCHLAVAPNHAVVSRSDRAAHVKQVLLHQQALFGKNGKNCPDKFCLFKSETKNLLFNDNTECLAKLGGRPTYEEYLGTEYVTAIANLKKCSTSPLLEACAFLTR
modifications: iron-depleted (apo)
As to B3, the IC50 in assay [1] was 2390 ± 203 nM.

B4: Holo-bLF: Iron-saturated (holo) bLF, iron saturation 95.5% (protein, UniProt P24627 20-708, looked up)
Lactotransferrin: APRKNVRWCTISQPEWFKCRRWQWRMKKLGAPSITCVRRAFALECIRAIAEKKADAVTLDGGMVFEAGRDPYKLRPVAAEIYGTKESPQTHYYAVAVVKKGSNFQLDQLQGRKSCHTGLGRSAGWIIPMGILRPYLSWTESLEPLQGAVAKFFSASCVPCIDRQAYPNLCQLCKGEGENQCACSSREPYFGYSGAFKCLQDGAGDVAFVKETTVFENLPEKADRDQYELLCLNNSRAPVDAFKECHLAQVPSHAVVARSVDGKEDLIWKLLSKAQEKFGKNKSRSFQLFGSPPGQRDLLFKDSALGFLRIPSKVDSALYLGSRYLTTLKNLRETAEEVKARYTRVVWCAVGPEEQKKCQQWSQQSGQNVTCATASTTDDCIVLVLKGEADALNLDGGYIYTAGKCGLVPVLAENRKSSKHSSLDCVLRPTEGYLAVAVVKKANEGLTWNSLKDKKSCHTAVDRTAGWNIPMGLIVNQTGSCAFDEFFSQSCAPGADPKSRLCALCAGDDQGLDKCVPNSKEKYYGYTGAFRCLAEDVGDVAFVKNDTVWENTNGESTADWAKNLNREDFRLLCLDGTRKPVTEAQSCHLAVAPNHAVVSRSDRAAHVKQVLLHQQALFGKNGKNCPDKFCLFKSETKNLLFNDNTECLAKLGGRPTYEEYLGTEYVTAIANLKKCSTSPLLEACAFLTR
modifications: iron-saturated (holo)
For B4, in assay [1], the IC50 stood at 2180 ± 428 nM.
